# Entries after “also recorded” stand apart in the source; their conditions may differ.
# T1: SaFrmB (Staphylococcus aureus, UniProt A0A0H3KFB7)
# T1 construct: made in house; host or cells: E. coli BL21 (DE3)
# T1 sequence (A0A0H3KFB7 1-253): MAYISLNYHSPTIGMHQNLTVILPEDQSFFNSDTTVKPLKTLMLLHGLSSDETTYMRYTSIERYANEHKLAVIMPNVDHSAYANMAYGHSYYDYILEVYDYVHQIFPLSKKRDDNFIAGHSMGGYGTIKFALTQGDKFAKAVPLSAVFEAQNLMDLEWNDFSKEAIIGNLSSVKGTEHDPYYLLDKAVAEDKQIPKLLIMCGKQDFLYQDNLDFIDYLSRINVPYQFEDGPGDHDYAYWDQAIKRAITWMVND
# T2: SaGloB (Staphylococcus aureus, UniProt P0DY75)
# T2 sequence (P0DY75 1-207): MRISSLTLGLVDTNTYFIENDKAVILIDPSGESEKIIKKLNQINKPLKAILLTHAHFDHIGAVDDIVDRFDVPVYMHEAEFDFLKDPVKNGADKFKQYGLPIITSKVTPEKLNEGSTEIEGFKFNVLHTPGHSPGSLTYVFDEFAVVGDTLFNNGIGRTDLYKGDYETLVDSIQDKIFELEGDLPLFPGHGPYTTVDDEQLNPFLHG
# Experiments:
# [1] = biological target: T1, SaFrmB; experiment: Esterase substrate specificity, fluorogenic SAR library kinetics; type: biochemical; conditions: for In vitro activity (catalytic efficiency) for FrmB, in words: fluorogenic ester substrate
# Description: (§1) Kinetic measurements were performed according to [White et al., 2018] with minor variation. Lyophilized human and mouse sera were resuspended according to manufacturer instructions in highly pure, filtered water at protein concentrations of 85 mg/mL and 70 mg/mL, respectively. One milliliter of resuspended serum was added to a 24 mL mastermix for a final concentration of 31.25 mM Tris pH 7.5, 312.5 mM NaCl, 1.25 mM MgCl2, 12.5% glycerol, and 3.4 mg/mL or 2.8 mg/mL protein for human and mouse serum, respectively. For purified proteins, 5 mL of a 75 µg/mL stock was added to yield a 20 mL mastermix containing 31.25 mM Tris pH 7.5, 312.5 mM NaCl, 1.25 mM MgCl2, 12.5% glycerol, and 18.75 µg/mL protein. Mastermix was stored on ice when not in use. Twenty microliters of mastermix was transferred to a black, 96-well half area microplate (Corning, CLS3993) and prewarmed at 37°C. Fluorogenic substrates were prepared as 10 mM stock solutions in 100% DMSO and were diluted in water to a starting concentration of 500 µM. Enzyme catalyzed substrate hydrolysis was initiated by addition of 5 µL substrate dilution in technical duplicate to the prewarmed serum or protein solution. Final assay concentrations were as follows: 25 mM Tris pH 7.5, 250 mM NaCl, 1 mM MgCl2, 10% glycerol, and protein at a concentration of 2.72 mg/mL (human serum), 2.24 mg/mL (mouse serum), or 15 µg/mL (FrmB, GloB). The resulting change in fluorescence (λex = 485 nm, λem = 520 nm) was followed for 15 min at 37°C, collecting data every 30 s on a FLUOstar Omega microplate reader (BMG Labtech). Fluorescence measurements were converted to molar concentrations using a fluorescein standard curve (2.5 nmol–0.6 pmol). The initial rates of reaction were measured three independent times with two technical replicates per measurement and fit to a line using GraphPad Prism (GraphPad Software, La Jolla, CA). Initial rates of reaction were plotted versus the concentration of substrate and fit to a standard Michaelis–Menten equation (v = Vmax[S]/(Km + [S])), yielding estimates of Vmax and Km. Values for kcat and kcat/Km were calculated based on amount of enzyme added when purified enzymes were used.
# [2] = biological target: T2, SaGloB; experiment: as above; type: biochemical
# Description: as §1
# [3] = tested on: human sera; experiment: Esterase substrate specificity, fluorogenic SAR library kinetics in serum; type: in vitro ADME
# Description: as §1
# [4] = tested on: mouse sera; experiment: as above; type: in vitro ADME
# Description: as §1
# [5] = tested on: S. aureus; experiment: Microfluidics live cell imaging of pro-fluorescent substrate activation; type: cell-based, Staphylococcus aureus; conditions: 10 µM pro-fluorescent substrate, 37°C
# Description: Overnight cultures of S. aureus were grown in LB media, back diluted 1:500, and grown to early exponential phase (OD600 0.1–0.15), then washed in 1× PBS, and loaded on a bacterial CellASIC ONIX2 microfluidic plate. Prior to cell loading, the microfluidics plate lines were flushed with 1× PBS + 1% DMSO or 10 µM fluorescent pro-substrate in 1× PBS + 1% DMSO, and the plate was preincubated at 37°C. The microfluidics plate was loaded onto a Nikon Ti-E inverted microscope (Nikon Instruments, Inc) equipped with a 100× Plan N (N.A. = 1.45) Ph3 objective, SOLA SE Light Engine (Lumencor), heated control chamber (OKO Labs), and an ORCA-Flash4.0 sCMOS camera (Hammamatsu Photonics). The GFP filter set was purchased from Chroma Technology Corporation. Cells were loaded into the chamber until a single field of view contained 50–150 cells or cell clusters. […] Images were acquired every two min for a total of 44 min, and all experiments were undertaken at 37°C. The phase-contrast exposure time was kept constant at 200 ms, and the fluorescent channel exposure time was kept constant at 500 ms. For fluorescent images, the gain remained constant across all experiments. Image capture and analysis was performed using Nikon Elements Advanced Research software. Individual cells or clusters of cells were auto detected in the fluorescent channel using the intrinsic background fluorescence of each cell. […] Fluorescent intensity for each individual cell or cluster of cells was measured through the duration of the experiment and normalized to the area of the identified cell to yield the mean fluorescent intensity. Background cell autofluorescence was corrected by subtracting the average fluorescence across all identified objects from t = 0 through t = 10. Each experiment was performed in duplicate, with >50 individual cells or clusters analyzed in each experiment.
# [6] = substrate: CC(C)OCC(=O)OCOc1ccc2c(c1)Oc1cc(OCOC(=O)COC(C)C)ccc1C21OC(=O)c2ccccc21; experiment: Esterase substrate specificity, fluorogenic SAR library kinetics; type: biochemical, Staphylococcus aureus; conditions: other: SaFrmB 15 µg/mL, pH 7.5, 37°C
# Description: as §1
# [7] = substrate: CC(C)SCC(=O)OCOc1ccc2c(c1)Oc1cc(OCOC(=O)CSC(C)C)ccc1C21OC(=O)c2ccccc21; experiment: as above; type: biochemical, Staphylococcus aureus; conditions: other: SaFrmB 15 µg/mL, pH 7.5, 37°C
# Description: as §1
# [8] = substrate: CCCC(=O)OCOc1ccc2c(c1)Oc1cc(OCOC(=O)CCC)ccc1C21OC(=O)c2ccccc21; experiment: as above; type: biochemical, Staphylococcus aureus; conditions: other: SaFrmB 15 µg/mL, pH 7.5, 37°C
# Description: as §1
# [9] = substrate: CCCCC(=O)OCOc1ccc2c(c1)Oc1cc(OCOC(=O)CCCC)ccc1C21OC(=O)c2ccccc21; experiment: as above; type: biochemical, Staphylococcus aureus; conditions: other: SaFrmB 15 µg/mL, pH 7.5, 37°C
# Description: as §1
# [10] = substrate: CCCOCC(=O)OCOc1ccc2c(c1)Oc1cc(OCOC(=O)COCCC)ccc1C21OC(=O)c2ccccc21; experiment: as above; type: biochemical, Staphylococcus aureus; conditions: other: SaFrmB 15 µg/mL, pH 7.5, 37°C
# Description: as §1
# [11] = substrate: CCOC(C)C(=O)OCOc1ccc2c(c1)Oc1cc(OCOC(=O)C(C)OCC)ccc1C21OC(=O)c2ccccc21; experiment: as above; type: biochemical, Staphylococcus aureus; conditions: other: SaFrmB 15 µg/mL, pH 7.5, 37°C
# Description: as §1
# [12] = substrate: CCOCC(=O)OCOc1ccc2c(c1)Oc1cc(OCOC(=O)COCC)ccc1C21OC(=O)c2ccccc21; experiment: as above; type: biochemical, Staphylococcus aureus; conditions: other: SaFrmB 15 µg/mL, pH 7.5, 37°C
# Description: as §1
# [13] = substrate: CCSCCC(=O)OCOc1ccc2c(c1)Oc1cc(OCOC(=O)CCSCC)ccc1C21OC(=O)c2ccccc21; experiment: as above; type: biochemical, Staphylococcus aureus; conditions: other: SaFrmB 15 µg/mL, pH 7.5, 37°C
# Description: as §1
# [14] = substrate: COC(C)(C)C(=O)OCOc1ccc2c(c1)Oc1cc(OCOC(=O)C(C)(C)OC)ccc1C21OC(=O)c2ccccc21; experiment: as above; type: biochemical, Staphylococcus aureus; conditions: other: SaFrmB 15 µg/mL, pH 7.5, 37°C
# Description: as §1
# [15] = substrate: COC(C)C(=O)OCOc1ccc2c(c1)Oc1cc(OCOC(=O)C(C)OC)ccc1C21OC(=O)c2ccccc21; experiment: as above; type: biochemical, Staphylococcus aureus; conditions: other: SaFrmB 15 µg/mL, pH 7.5, 37°C
# Description: as §1
# [16] = substrate: COCC(=O)OCOc1ccc2c(c1)Oc1cc(OCOC(=O)COC)ccc1C21OC(=O)c2ccccc21; experiment: as above; type: biochemical, Staphylococcus aureus; conditions: other: SaFrmB 15 µg/mL, pH 7.5, 37°C
# Description: as §1
# [17] = substrate: COCCC(=O)OCOc1ccc2c(c1)Oc1cc(OCOC(=O)CCOC)ccc1C21OC(=O)c2ccccc21; experiment: as above; type: biochemical, Staphylococcus aureus; conditions: other: SaFrmB 15 µg/mL, pH 7.5, 37°C
# Description: as §1
# [18] = substrate: CSCCC(=O)OCOc1ccc2c(c1)Oc1cc(OCOC(=O)CCSC)ccc1C21OC(=O)c2ccccc21; experiment: as above; type: biochemical, Staphylococcus aureus; conditions: other: SaFrmB 15 µg/mL, pH 7.5, 37°C
# Description: as §1
molecule,measurement,setting,value
COCC(=O)OCOc1ccc2c(c1)Oc1cc(OCOC(=O)COC)ccc1C21OC(=O)c2ccccc21 [1O],kcat/kuncat,[1]; SaFrmB,1.34 103
same,"In vitro activity (catalytic efficiency) for FrmB, in words",[1],high activity; also recorded: highest catalytic efficiency substrate
same,kcat/kuncat,"[2]; SaGloB, normalised to uncatalysed hydrolysis rate",38.6 103
same,"In vitro activity (catalytic efficiency) for GloB, in words",[2]; fluorogenic ester substrate,high activity; also recorded: highest catalytic efficiency substrate
same,Km,[3],64.1 µM
same,Vmax,[3],68.6 pmol*min-1*mg sera-1
same,Km,[4],> 50 µM
same,Time to intracellular fluorescence saturation,[5]; images every 2 min,< 2 min
CCCCCC(=O)OCOc1ccc2c(c1)Oc1cc(OCOC(=O)CCCCC)ccc1C21OC(=O)c2ccccc21 [3C],Km,"[1]; SaFrmB 15 µg/mL, pH 7.5, 37°C",> 50 µM
same,"In vitro activity (catalytic efficiency) for FrmB, in words",[1],moderate activity
same,Km,"[2]; SaGloB, fluorogenic ester substrate",> 50 µM
same,"In vitro activity (catalytic efficiency) for GloB, in words",[2]; fluorogenic ester substrate,moderate activity
same,Km,[3],> 50 µM
same,Km,[4],> 50 µM
same,"Intracellular activation (fluorescence) in live S. aureus, in words",[5]; 30 min of observation,slowly activates over the duration of the experiment
"SaFrmB (Staphylococcus aureus subsp. aureus str. Newman) (protein, made in house; host or cells: E. coli BL21 (DE3)) MAYISLNYHSPTIGMHQNLTVILPEDQSFFNSDTTVKPLKTLMLLHGLSSDETTYMRYTSIERYANEHKLAVIMPNVDHSAYANMAYGHSYYDYILEVYDYVHQIFPLSKKRDDNFIAGHSMGGYGTIKFALTQGDKFAKAVPLSAVFEAQNLMDLEWNDFSKEAIIGNLSSVKGTEHDPYYLLDKAVAEDKQIPKLLIMCGKQDFLYQDNLDFIDYLSRINVPYQFEDGPGDHDYAYWDQAIKRAITWMVND",Km,[6],9.17 µM
same,Vmax,[6],0.597 pmol*min-1*μg protein-1
same,kcat,[6],0.112 10-3 s-1
same,kcat/Km,[6],12.3 M⁻¹ s⁻¹
same,Km,[7],36.3 µM
same,Vmax,[7],0.629 pmol*min-1*μg protein-1
same,kcat,[7],0.118 10-3 s-1
same,kcat/Km,[7],3.27 M⁻¹ s⁻¹
same,Km,[8],30.4 µM
same,Vmax,[8],0.149 pmol*min-1*μg protein-1
same,kcat,[8],0.0280 10-3 s-1
same,kcat/Km,[8],0.921 M⁻¹ s⁻¹
same,Km,[9],26.5 µM
same,Vmax,[9],0.0637 pmol*min-1*μg protein-1
same,kcat,[9],0.0120 10-3 s-1
same,kcat/Km,[9],0.452 M⁻¹ s⁻¹
same,Km,[10],9.95 µM
same,Vmax,[10],0.621 pmol*min-1*μg protein-1
same,kcat,[10],0.117 10-3 s-1
same,kcat/Km,[10],11.7 M⁻¹ s⁻¹
same,Km,[11],18.3 µM
same,Vmax,[11],0.163 pmol*min-1*μg protein-1
same,kcat,[11],0.0307 10-3 s-1
same,kcat/Km,[11],1.68 M⁻¹ s⁻¹
same,Km,[12],13.9 µM
same,Vmax,[12],2.04 pmol*min-1*μg protein-1
same,kcat,[12],0.385 10-3 s-1
same,kcat/Km,[12],27.7 M⁻¹ s⁻¹
same,Km,[13],11.1 µM
same,Vmax,[13],0.0295 pmol*min-1*μg protein-1
same,kcat,[13],0.00556 10-3 s-1
same,kcat/Km,[13],0.500 M⁻¹ s⁻¹
same,Km,[14],74.2 µM
same,Vmax,[14],0.163 pmol*min-1*μg protein-1
same,kcat,[14],0.0307 10-3 s-1
same,kcat/Km,[14],0.414 M⁻¹ s⁻¹
same,Km,[15],107 µM
same,Vmax,[15],2.57 pmol*min-1*μg protein-1
same,kcat,[15],0.485 10-3 s-1
same,kcat/Km,[15],4.52 M⁻¹ s⁻¹
same,Km,[16],30.3 µM
same,Vmax,[16],5.98 pmol*min-1*μg protein-1
same,kcat,[16],1.13 10-3 s-1
same,kcat/Km,[16],37.2 M⁻¹ s⁻¹
same,Km,[17],30.0 µM
same,Vmax,[17],0.183 pmol*min-1*μg protein-1
same,kcat,[17],0.0345 10-3 s-1
same,kcat/Km,[17],1.15 M⁻¹ s⁻¹
same,Km,[18],52.7 µM
same,Vmax,[18],0.505 pmol*min-1*μg protein-1
same,kcat,[18],0.0950 10-3 s-1
same,kcat/Km,[18],1.80 M⁻¹ s⁻¹
